Measured values taken from patent US20210292392A1.

Assays:
Experiment in all cases: cell-based or functional assay
[1] = molecular target: full length S protein of SARS-CoV-2 (on pseudovirus) (SARS-CoV-2) (UniProt P0DTC2)
[2] = molecular target: spike protein on live SARS-CoV-2 (SARS-CoV-2) (UniProt P0DTC2)
[3] = molecular target: spike protein of live SARS-CoV-2 (SARS-CoV-2) (UniProt P0DTC2)
[4] = molecular target: spike (S) protein of live SARS-CoV-2 (SARS-CoV-2) (UniProt P0DTC2)

P2C-1F11 (antibody)
Pseudovirus IC50 [1]: 0.0286 µg/mL
Pseudovirus IC80 [1]: 0.119 µg/mL
IC50, live SARS-CoV-2 focus reduction neutralization test (FRNT) [2]: 0.03 µg/mL
Live virus IC50 [3]: 0.0323 µg/mL
Live virus IC80 [3]: 0.178 µg/mL
Live virus IC50 [4]: 0.0323 µg/mL
Live virus IC80 [4]: 0.178 µg/mL
